From PMC8934182

Assays:
[1] = biological target: SARS-CoV nucleocapsid (N) protein (SARS-CoV, UniProt P59595 1-422); test: competition
SARS-CoV-2 spike S1 = SARS-CoV-2 spike S1 (SARS-CoV-2, UniProt P0DTC2 13-685); test: 5.0 ng/mL in EIS
Interferon-gamma (IFN-γ) = Interferon-gamma (IFN-γ) (UniProt P01579 24-161); test: competition

Measured: binding result

Chain of Interferon-gamma (IFN-γ) (P01579 24-161): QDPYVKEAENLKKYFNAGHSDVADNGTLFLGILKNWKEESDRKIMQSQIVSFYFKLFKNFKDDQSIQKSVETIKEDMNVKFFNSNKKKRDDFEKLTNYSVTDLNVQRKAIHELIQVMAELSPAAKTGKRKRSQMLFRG
Chain of SARS-CoV nucleocapsid (N) protein (P59595 whole entry): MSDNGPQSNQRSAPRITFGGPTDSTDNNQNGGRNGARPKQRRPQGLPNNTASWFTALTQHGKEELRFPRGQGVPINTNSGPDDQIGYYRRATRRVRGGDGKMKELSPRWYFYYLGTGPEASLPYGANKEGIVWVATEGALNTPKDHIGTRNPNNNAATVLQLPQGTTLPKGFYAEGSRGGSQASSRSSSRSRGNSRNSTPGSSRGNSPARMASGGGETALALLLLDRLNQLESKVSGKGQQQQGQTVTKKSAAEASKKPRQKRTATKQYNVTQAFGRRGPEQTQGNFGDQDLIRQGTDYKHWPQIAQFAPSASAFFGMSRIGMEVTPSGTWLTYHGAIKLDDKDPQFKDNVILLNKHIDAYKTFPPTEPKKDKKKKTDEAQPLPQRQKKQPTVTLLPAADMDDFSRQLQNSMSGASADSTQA

B1: N48 aptamer (ssDNA)
DNA: GCTGGATGTCGCTTACGACAATATTCCTTAGGGGCACCGCTACATTGACACATCCAGC
no binding: [1] | SARS-CoV-2 spike S1 | Interferon-gamma (IFN-γ)
